Assay results as given in the supplement of paper PMC10724198.
± gives the standard deviation of the averaged measurements.

System: Saccharomyces cerevisiae
Experiment: protein stability index of tFT-peptide fusion (C-terminal peptide) (PSI (0-1 scale)); higher = more stable (slower turnover)
Conditions: genetic background: wild type; temperature: 30 C
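Also: PSI is a weighted mean of sequencing reads over stability bins, variants kept only with over 10 reads, mCherry proximal and sfGFP distal, peptide attached via GGGS linker.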

## FLYPPAHPLLPP
  protein stability index: 0.7 ± 0.024

## CVAAASPFRLLY
  protein stability index: 0.654 ± 0.04

## HCPRPRPTCRPP
  protein stability index: 0.615 ± 0.1

## PRPLPTGRFPPP
  protein stability index: 0.669 ± 0.028

## GDFILLCDFDPI
  protein stability index: 0.712 ± 0.09

## VGVSGVCGDWAM
  protein stability index: 0.67 ± 0.05

## KALKNEYRYRAF
  protein stability index: 0.645 ± 0.073

## FFLWSLLGGLPC
  protein stability index: 0.661 ± 0.02

## GFGVAGLVGKGV
  protein stability index: 0.662 ± 0.053

## LGFDRGGGVAGM
  protein stability index: 0.674 ± 0.034

## AAHSQNPPPPSS
  protein stability index: 0.697 ± 0.031

## PPPRPPSPPPPP
  protein stability index: 0.672 ± 0.051

## LPLPPALPSPSL
  protein stability index: 0.658 ± 0.027

## FRAYCLPCNYHR
  protein stability index: 0.68 ± 0.052

## RICPEVSSVLIR
  protein stability index: 0.682 ± 0.035

## YFALPPSAHRHQ
  protein stability index: 0.693 ± 0.059

## CRSGFEPSPHLG
  protein stability index: 0.657 ± 0.029

## DPPLSGRAKGPH
  protein stability index: 0.709 ± 0.02

## FVSGLEMCRTCF
  protein stability index: 0.672 ± 0.025

## RACWGKSTGGEW
  protein stability index: 0.723 ± 0.0083

## RSVGMFSCRPVW
  protein stability index: 0.698 ± 0.017

## PPPLPPALSPSH
  protein stability index: 0.679 ± 0.07

## RLSTPPAPQRPS
  protein stability index: 0.666 ± 0.013

## GFSSVILMHMPC
  protein stability index: 0.7534 ± 0.0048

## PLLPILTSPPRR
  protein stability index: 0.71 ± 0.029

## TGMRKDLVVSFW
  protein stability index: 0.728 ± 0.051

## VPRPPPHPPGDV
  protein stability index: 0.622 ± 0.016

## GRLGRMWRCDPR
  protein stability index: 0.658 ± 0.032

## VRHSPVVPANRP
  protein stability index: 0.698 ± 0.094

## TELRRRVGYVAL
  protein stability index: 0.663 ± 0.032

## VQVSGFPHSRTR
  protein stability index: 0.691 ± 0.023

## AVRVSRFSCGGW
  protein stability index: 0.717 ± 0.038

## IRKKIRKKTIYK
  protein stability index: 0.798 ± 0.034

## ASGKRSGPNPCR
  protein stability index: 0.72 ± 0.022

## RGGTGGWKGVWV
  protein stability index: 0.71 ± 0.022

## VMGIGAAVRRVR
  protein stability index: 0.713 ± 0.02

## KSSNYSTEDVKI
  protein stability index: 0.697 ± 0.014

## QMKKDIKPRPGE
  protein stability index: 0.704 ± 0.037

## GLCGFLLIETLL
  protein stability index: 0.64 ± 0.0085

## RYPLRPLLLPPP
  protein stability index: 0.741 ± 0.16

## PPAPPPADLGPP
  protein stability index: 0.644 ± 0.093

## VDYARECALIGG
  protein stability index: 0.782 ± 0.11

## AVVTVVDRVVRE
  protein stability index: 0.594 ± 0.032

## SPSLSFPGIPLF
  protein stability index: 0.673 ± 0.052

## MCVGSLMHKLRW
  protein stability index: 0.6988 ± 0.0043

## GQSVYRRWGCLK
  protein stability index: 0.68 ± 0.01

## PDASRRVPPPPD
  protein stability index: 0.663 ± 0.066

## APPPRATLPRPP
  protein stability index: 0.673 ± 0.055

## PFPRPLSPLPFR
  protein stability index: 0.75 ± 0.074

## SGSGLRIIRSSP
  protein stability index: 0.657 ± 0.011

## TYTCRQVSCNAL
  protein stability index: 0.681 ± 0.012

## EKNRRCQKRKKK
  protein stability index: 0.726 ± 0.054

## VCLRRYGVMADV
  protein stability index: 0.628 ± 0.015

## CDWQMMKVQERS
  protein stability index: 0.698 ± 0.021

## PAPLPFPLPTSL
  protein stability index: 0.757 ± 0.015

## PPLYPGSKVQLL
  protein stability index: 0.672 ± 0.011

## LPRREQILRKGS
  protein stability index: 0.71 ± 0.023

## RGGLDQVHKGFR
  protein stability index: 0.711 ± 0.086

## QKEKKKTVKTKI
  protein stability index: 0.723 ± 0.09

## VGVVGGSWEVVG
  protein stability index: 0.685 ± 0.031

## EGWLVDVDRIVG
  protein stability index: 0.741 ± 0.076

## VYKLDLEEENRS
  protein stability index: 0.654 ± 0.072

## SLDILVSVDGRL
  protein stability index: 0.6546 ± 0.001

## LTTRTQTDDRKR
  protein stability index: 0.682 ± 0.0077

## NINKINKKCTRV
  protein stability index: 0.645 ± 0.055

## CSVRGDVANYAF
  protein stability index: 0.6457 ± 0.0028

## CLSATTFSYVFA
  protein stability index: 0.576 ± 0.0061

## FRELIRPSKENR
  protein stability index: 0.664 ± 0.025

## PLYSPPPHRYLL
  protein stability index: 0.653 ± 0.019

## EYLHPARITGVL
  protein stability index: 0.733 ± 0.11

## GRADWERGMGLV
  protein stability index: 0.664 ± 0.021

## LPDSHHQTMGVF
  protein stability index: 0.711 ± 0.055

## ATPGALVSHPTL
  protein stability index: 0.729 ± 0.049

## PLPPPFLHLPPP
  protein stability index: 0.683 ± 0.036

## PPPPGPSSPHPP
  protein stability index: 0.707 ± 0.041

## SSSRLLALSSLH
  protein stability index: 0.694 ± 0.053

## PTSPTTSPDHKH
  protein stability index: 0.684 ± 0.15

## NKNKKKKEKKSR
  protein stability index: 0.725 ± 0.12

## TQTLLQRTYREG
  protein stability index: 0.722 ± 0.09

## SSTERLELERMS
  protein stability index: 0.705 ± 0.021

## PGIHRPLAVEDL
  protein stability index: 0.676 ± 0.032

## SIWLPPSRPPPS
  protein stability index: 0.766 ± 0.015

## ECPYFSHTPVAV
  protein stability index: 0.644 ± 0.032

## PPAPPPAPPHSS
  protein stability index: 0.633 ± 0.061

## LHISYPVPPLRM
  protein stability index: 0.633 ± 0.11

## PQLFLENHEFCI
  protein stability index: 0.925 ± 0.051

## SFRASVSAPCLF
  protein stability index: 0.683 ± 0.067

## RTNGNIKNVNIE
  protein stability index: 0.684 ± 0.07

## FKNVTGWLFFCR
  protein stability index: 0.702 ± 0.064

## PFVSGLSGQHEQ
  protein stability index: 0.637 ± 0.011

## PSDPTPSVPPIV
  protein stability index: 0.6647 ± 0.001

## PPLPFPPLPPSP
  protein stability index: 0.74 ± 0.063

## GVCQSEKSARGI
  protein stability index: 0.664 ± 0.05

## TIGVTCSRLGRG
  protein stability index: 0.685 ± 0.014

## VPSLPSPCSSCA
  protein stability index: 0.667 ± 0.046

## GLRYGLALARPF
  protein stability index: 0.65 ± 0.034

## ATDAWNKNKESS
  protein stability index: 0.542 ± 0.04

## PACPLISPIGRF
  protein stability index: 0.673 ± 0.05

## VRALCRYRTVNG
  protein stability index: 0.685 ± 0.035

## FSASMSTIWQTG
  protein stability index: 0.602 ± 0.034

## VAFLSSADLLPP
  protein stability index: 0.676 ± 0.056

## FTWFGAFLSCFV
  protein stability index: 0.61 ± 0.069

## LRHLLAPPPRPP
  protein stability index: 0.649 ± 0.016

## VGGWGGVGTCVW
  protein stability index: 0.711 ± 0.047

## LGGLYGTAMSCT
  protein stability index: 0.683 ± 0.023

## VEGSRDSLGCMD
  protein stability index: 0.679 ± 0.03

## LVRLRRSLRLFL
  protein stability index: 0.539 ± 0.037

## ARPPSPRPPPAP
  protein stability index: 0.675 ± 0.062

## FPLTKASSPSLL
  protein stability index: 0.672 ± 0.073

## RYGTGQLDYCFI
  protein stability index: 0.717 ± 0.018

## WGQCLYRSAGSV
  protein stability index: 0.715 ± 0.055

## VMVGRVLEKGVV
  protein stability index: 0.654 ± 0.069

## TRSTKIVVEGSG
  protein stability index: 0.736 ± 0.085

## AALSTYPLVTCS
  protein stability index: 0.547 ± 0.012

## FLCLLPLRLFGI
  protein stability index: 0.603 ± 0.021

## CAGSRIYCVSLS
  protein stability index: 0.641 ± 0.062

## PIPPPPPPPHSP
  protein stability index: 0.779 ± 0.043

## CTRCKRDDYNIE
  protein stability index: 0.6803 ± 0.006

## GGGRGGGGGGDA
  protein stability index: 0.697 ± 0.038

## PHAPQSPGWLHG
  protein stability index: 0.7 ± 0.028

## CPRSWWELLAID
  protein stability index: 0.739 ± 0.045

## VGGEWGLGVRPR
  protein stability index: 0.703 ± 0.014

## IRGWVRCRVARG
  protein stability index: 0.683 ± 0.021

## PHPPGFGPGRTL
  protein stability index: 0.698 ± 0.068

## KKEKKKTKANKT
  protein stability index: 0.679 ± 0.031

## KKQQKTKEKTES
  protein stability index: 0.76 ± 0.031

## RVYGSFFYVSLL
  protein stability index: 0.66 ± 0.13

## SLMLPIFLPLSR
  protein stability index: 0.698 ± 0.04

## SISPWFFFFLDW
  protein stability index: 0.579 ± 0.014

## HECVRGLSFVLV
  protein stability index: 0.668 ± 0.081

## KTSYDQTLEMGL
  protein stability index: 0.62 ± 0.04

## VRVRPAVRSGPE
  protein stability index: 0.616 ± 0.006

## GRASAGVLLCDG
  protein stability index: 0.659 ± 0.028

## FCCGGEFAWCLG
  protein stability index: 0.695 ± 0.016

## PSSDVLLFALSF
  protein stability index: 0.6486 ± 0.0049

## QVCSRKKCDSRK
  protein stability index: 0.567 ± 0.069

## MCVGGGCGRGGA
  protein stability index: 0.719 ± 0.14

## CSTFFVRSLSFI
  protein stability index: 0.63 ± 0.034

## FPPPPRPSSPLL
  protein stability index: 0.693 ± 0.024

## ISCTASRCRLTR
  protein stability index: 0.744 ± 0.025

## LGEYNRKKKPRI
  protein stability index: 0.6446 ± 0.0034

## PPSIFELFPSPP
  protein stability index: 0.7122 ± 0.0051

## KPSAKRRNLFKL
  protein stability index: 0.699 ± 0.15

## HKSRHSPKPPFT
  protein stability index: 0.6677 ± 0.0026

## LTHLLTSHTNII
  protein stability index: 0.746 ± 0.081

## PGLQFPIWGVKG
  protein stability index: 0.71 ± 0.045
